Experimental data reported in patent US20090291083A1, “BARB4 TARGET, ANTIBODY DESIGNATED BARB4, BARB4 RELATED ANTIBODIES, AND METHODS OF MAKING AND USING SAME” (PATRYS LIMITED, priority 2008, published 2009).

What was measured:
Test in all cases: MTT cell proliferation assay (Table 3)
Type in all cases: cell-based, human
A549 = system: A549
Method: (§1) BARB4 was also evaluated for inhibition of proliferation of other cancer cell lines, including BxPC-3, COLO 205, H460, MDA-MB-231 and MIAPaCa-2 cells, as well as HT-29, HCT-116, BxPC-3, PANC-1, A549, PC-3 and HCT116 cells. In brief, various human cancer cell lines obtained from the American Type Culture Collection (ATCC) were established using standard in vitro culture methods and ATCC recommended media in 175 cm2 BD tissue culture treated flasks. In particular, MDAMB-231 cultures were incubated in a humidified 37° C., 100% air incubator, and BxPC-3, COLO 205, H460 and MIAPaCa-2 cultures were incubated in a humidified 37° C., 5% CO2, 95% air incubator. Cultures were sub-cultivated regularly to maintain log phase growth. All cell lines were brought up from cryopreservation using the original recommended ATCC media type and supplements. Cell line specific seeding densities were based on historical data from MIR Preclinical Services for growth over a 72 hr period.
(§2) The anti-proliferative activity of BARB4 and cisplatin was evaluated using the MTT cell proliferation assay (ATCC catalog #30-1010K). The assay is based on the reduction of yellow tetrazolium MTT (3-(4,5-dimethylthiazolyl-2)-2,5-diphenyltetrazolium bromide) by metabolically active cells forming purple formazan crystals. The purple formazan is solubilzed with detergent and quantified spectrophotometrically at 570 nm (MTT Cell Proliferation Assay, ATCC 30-1010K; Van de Loosdrecht, et al. J. Immunol. Methods 174:311 (1994): Ferrari, et al. J. Immunol. Methods 131:165 (1990); Gerlier, D., and N. Thomasset. J. Immunol. Methods 94:57 (1986); Alley, et al. Cancer Res. 48:589 (1988); and Mosmann, T. J. Immunol. Methods 65:55 (1983)). The MTT Cell Proliferation Assay Kit from ATCC contains ready to use MTT and detergent solutions.
(§3) Cells in the log phase of growth were seeded into 96-well culture plates in 0.1 mL of complete medium in all wells except column 12 which was reserved for media-only control (blank) and allowed to attach overnight at 37° C. Compounds were diluted in complete culture media and added to each well in a volume of […] for a final 1:2 dilution from the 2× dilution reservoir concentration. At 24 and 48 hr post-treatment, 100 μl of media was removed and 0.01 mL of MTT reagent was added to each well. The plates were returned to the incubator for four hours. Detergent reagent (0.1 mL) was then added and the plates incubated overnight at 37° C. in the dark to solubilize the formazan crystals. The absorbance at 570 nm was measured with a SpectraMAX® Plus plate reader (Molecular Devices Corporation) at 24 and 48 hr post-detergent addition. Absorbance values were converted to percent of control and then plotted against test agent concentrations for IC50 calculations using SoftMax® Pro v. 5.2 (Molecular Devices Corporation). Plots of percent of control vs. compound (BARB4 or cisplatin) concentration were analyzed using the 4 parameter equation to obtain IC50 values and other parameters that describe the sigmoidal curve along with an R2 value.
(§4) Using the same MTT assay as described for the BxPC-3, COLO 205, H460, MDA-MB-231 and MIAPaCa-2 cells, proliferation of HT-29, HCT-116, BxPC-3, PANC-1, A549, PC-3 and HCT116 cells was evaluated and IC50 (μg/ml) was calculated at 24, 48 and 72 hours. The cell culture protocol for passaging adherent cells used is substantially as described above for the BxPC-3, COLO 205, H460, MDA-MB-231, and MIAPaCa-2 cells. The following were the cell line propagation conditions:
(§5) Atmosphere. 5% CO2, humidified Media Supplements Used: * FBS—Fetal Bovine Serum (Gibco 10082-147; lot #1354986), * PSG—Penicillin, Streptomycin, L-Glutamine Solution (CellGro 30-009-CI), * 0.1M Na Pyruvate (CellGro 25-000-CI), * 1.0M HEPES (CellGro 25-060-CI), AND * 45% Glucose (CellGro 25-037-CI). Seeding Densities* for IC50 Assays: A549 2.5×10^3; PC-3 6.0×10^3; HT-29 12×10^3; HCT-116 8.0×10^3; BxPC-3 12×10^3; and PANC-1 6.0×10^3 cells.

BxPC-3 = system: BxPC-3
Method: as §1, §2, §3, §4, §5

HCT-116 = system: HCT-116
Method: as §1, §2, §3, §4, §5

PANC-1 = system: PANC-1
Method: as §1, §2, §3, §4, §5

PC-3 = system: PC-3
Method: as §1, §2, §3, §4, §5

B1: BARB4: human IgG antibody produced by hybridoma DSMZ Deposit No. DSM ACC2876; heavy chain SEQ ID NOs:1, 3, 5, 7, light chain SEQ ID NO:9 (antibody, V domains shown)
VH: QVQLVESGGGVVQPGRSLRLSCAASGFRFTTHGMHWVRQAPGKGLEWVAVISYNGRNKYYADYVNGRFTISRDDSRDTVFLQMNSLRPEDTAMYYCAKVRGDGYGDYGYFDYWGHGTLVSVSS
VL: QSALTQPRSVSGSPGQSVTISCTGTYNYVSWYQQHPGKAPKLMIFDVSRRSSGVPDRFSGSKSGNTASLTISGLQAEDEADYYCCSYGGTYLYVFGTGTTVTVLGQ
B1 was tested. Which “IC50 24 hours” value (A549; 24 hours) did it give?
The value was 98.9 µg/mL.

And the “IC50 48 hours” value (A549; 48 hours)?
The value was 111.2 µg/mL.

And the “IC50 72 hours” value (A549; 72 hours)?
Its value is 122.2 µg/mL.

And the “IC50 24 hours” value (BxPC-3; 24 hours)?
Its value is 88.9 µg/mL.

What about the “IC50 48 hours” value (BxPC-3; 48 hours) of the same molecule?
Its value is 362.8 µg/mL.

What about the “IC50 72 hours” value (BxPC-3; 72 hours) of the same molecule?
The value was 511.4 µg/mL.

What about the “IC50 24 hours” value (HCT-116; 24 hours) of the same molecule?
Its value is 24.8 µg/mL.

And the “IC50 48 hours” value (HCT-116; 48 hours)?
Its value is 77.3 µg/mL.

What about the “IC50 72 hours” value (HCT-116; 72 hours) of the same molecule?
Its value is 95.2 µg/mL.

What about the “IC50 24 hours” value (PANC-1; 24 hours) of the same molecule?
The value was 91.4 µg/mL.

What about the “IC50 48 hours” value (PANC-1; 48 hours) of the same molecule?
Its value is 337.1 µg/mL.

What about the “IC50 72 hours” value (PANC-1; 72 hours) of the same molecule?
Its value is 353.2 µg/mL.

And the “IC50 24 hours” value (PC-3; 24 hours)?
Its value is 57.2 µg/mL.

And the “IC50 48 hours” value (PC-3; 48 hours)?
Its value is 64.2 µg/mL.

And the “IC50 72 hours” value (PC-3; 72 hours)?
The value was 155.7 µg/mL.
